Data taken from article PMC6258031 (Structure (London, England : 1993), 2017).
Non-standard residues stand in square brackets, D forms with d. SeMet = C[Se]CC[C@H](N)C(=O)O

T1: Bicc1 SAM F920E (human, UniProt Q9H694 870-939, F920E)
T1 sequence (looked up): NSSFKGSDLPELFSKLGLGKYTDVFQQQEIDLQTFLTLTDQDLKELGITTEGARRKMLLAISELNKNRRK

T2: ANKS3 SAM F472E (human, UniProt Q6ZW76 421-490, F472E)
T2 sequence (looked up): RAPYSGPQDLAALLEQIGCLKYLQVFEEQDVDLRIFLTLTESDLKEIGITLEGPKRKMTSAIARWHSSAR

B1: Bicc1 SAM R924E (native) (domain or fragment, human, UniProt Q9H694 870-939, looked up)
chain: NSSFKGSDLPELFSKLGLGKYTDVFQQQEIDLQTFLTLTDQDLKELGITTFGAREKMLLAISELNKNRRK

Assays:
ANKS6 SAM (Homo sapiens) = ANKS6 SAM (Homo sapiens) (UniProt Q68DC2); conditions: cited from earlier work
crystal structure = target: the molecule itself; assay: crystal structure
Bicc1 SAM F920E = target: T1, Bicc1 SAM F920E; assay: SEC-MALS
Bicc1 SAM R924E (native) = target: B1; assay: SPR
ANKS3 SAM F472E = target: T2, ANKS3 SAM F472E; assay: SPR

ANKS6 SAM (Homo sapiens), sequence (Q68DC2 770-839): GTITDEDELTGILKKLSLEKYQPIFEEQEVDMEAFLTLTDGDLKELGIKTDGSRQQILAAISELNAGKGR

Kd (Bicc1 SAM R924E (native)) [nM] | Kd (ANKS3 SAM F472E) [nM] | Molecule | binding result (crystal structure) | also measured
– | – | ANKS3 SAM (from UniProt Q6ZW76) | – | Kd (ANKS6 SAM (Homo sapiens)): 249 nM
– | – | Bicc1 SAM R924E SeMet (domain or fragment, human, UniProt Q9H694 870-939, looked up) NSSFKGSDLPELFSKLGLGKYTDVFQQQEIDLQTFLTLTDQDLKELGITTFGAREK[SeMet]LLAISELNKNRRK | binds | –
2200 ± 100 | – | ANKS3 SAM I455E (domain or fragment, human, UniProt Q6ZW76 421-490, looked up) RAPYSGPQDLAALLEQIGCLKYLQVFEEQDVDLREFLTLTESDLKEIGITLFGPKRKMTSAIARWHSSAR | – | binding result (Bicc1 SAM F920E): binds
1350 ± 100 | 1350 ± 100 | Bicc1 SAM E898K (domain or fragment, human, UniProt Q9H694 870-939, looked up) NSSFKGSDLPELFSKLGLGKYTDVFQQQKIDLQTFLTLTDQDLKELGITTFGARRKMLLAISELNKNRRK | – | –
– | – | B1 | binds | –
1350 ± 100 | 1350 ± 100 | Bicc1 SAM D911K (domain or fragment, human, UniProt Q9H694 870-939, looked up) NSSFKGSDLPELFSKLGLGKYTDVFQQQEIDLQTFLTLTDQKLKELGITTFGARRKMLLAISELNKNRRK | – | –
